From patent US20170089914A1 (Merck Sharp & Dohme, published 2017)

Target: pembrolizumab F(ab')2 protein
Test: SPR (BIAcore T200), Fab-SASA captured on BSA chip, pembrolizumab F(ab')2 as analyte, 1:1 fit

Sequence of pembrolizumab F(ab')2 protein (chain, as listed by the source, chain 1 of 2): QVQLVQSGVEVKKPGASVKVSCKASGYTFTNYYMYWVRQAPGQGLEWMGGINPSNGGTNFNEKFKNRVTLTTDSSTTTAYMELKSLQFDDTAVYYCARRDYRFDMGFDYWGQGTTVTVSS
Sequence of pembrolizumab F(ab')2 protein (chain, as listed by the source, chain 2 of 2): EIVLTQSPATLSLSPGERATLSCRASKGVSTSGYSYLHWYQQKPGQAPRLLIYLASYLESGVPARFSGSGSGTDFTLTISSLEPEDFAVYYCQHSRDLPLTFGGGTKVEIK

Binder	koff [s⁻¹]
A30514 Fab antibody (Fab-SASA secreted to culture medium) (Fab, V domains shown, Rabbit variable domains from a Fab phage library; Tested as Fab-SASA expressed from the pFASEBA vector and captured on BSA via SASA) VH: QEQLVESGGRLVTPGTPLTLTCTASGFSLGSDFMSWVRQAPGKGLEWIGYIDPRSDIPYYASWAKGRFTISKTSTTVDLKITSPTTEDTATYFCARDLNAGYFNGIFYIWGPGTLVTVSS VL: ELVMTQTPSSVSAAVGDTVTINCQASETVATLLAWYQQKPGQPPKLLIYGASNLESGVPSRFRGSGSGTEFTLTISGMKAEDAATYYCQYGYISTGSNTFGAGTNVEIK	6.5e-05
A30523 Fab antibody (Fab-SASA secreted to culture medium) (Fab, V domains shown, Rabbit variable domains from a Fab phage library; Tested as Fab-SASA expressed from the pFASEBA vector and captured on BSA via SASA) VH: QEQLVESGGRLVTPGTPLTLTCTASGFSLGSDFMSWVRQAPGKGLEWIGYIDPRSDIPYYASWAKGRFTISKTSTTVDLKITSPTTEDTATYFCARDLNAGYFNGIFYIWGPGTLVTVSS VL: ELDMTQTPSSTSEPVGGTVTINCQASQTISSYLSWYQQKPGHPPKLLIYDASDLASGVPSRFSGSRSGTQFTLTISGVQCDDAATYYCLGVYDYRSDDGAAFGGGTELEIL	0.00034
A30633 Fab antibody (Fab-SASA secreted to culture medium) (Fab, V domains shown, Rabbit variable domains from a Fab phage library; Tested as Fab-SASA expressed from the pFASEBA vector and captured on BSA via SASA) VH: QSLEESGGRLVTPGTPLTLTCTVSGFSLSTNDMNWVRQAPGKGLEWIGVIYSDDTPDYATWAKGRFTISRTSTTVDLKITSPTTEDTATYFCARGHYDSAVYAYALNIWGPGTLVTVSS VL: ELVMTQTPSSVSAAVGGTVTITCQASQSLSNLLAWYQQKPGQPPKLLIYGASNLESGVPSRFRGSGSGTDFTLTISGMKAEDAATYYCQGGHYSGLTFGNGTNVEIK	0.0012
